Assay results from publication PMC13480463 (Science translational medicine, 2021).

Biological target: T1, Fzd3 (receptor of the AP binding assays) (UniProt Q61086 23-666)
T1 sequence (looked up): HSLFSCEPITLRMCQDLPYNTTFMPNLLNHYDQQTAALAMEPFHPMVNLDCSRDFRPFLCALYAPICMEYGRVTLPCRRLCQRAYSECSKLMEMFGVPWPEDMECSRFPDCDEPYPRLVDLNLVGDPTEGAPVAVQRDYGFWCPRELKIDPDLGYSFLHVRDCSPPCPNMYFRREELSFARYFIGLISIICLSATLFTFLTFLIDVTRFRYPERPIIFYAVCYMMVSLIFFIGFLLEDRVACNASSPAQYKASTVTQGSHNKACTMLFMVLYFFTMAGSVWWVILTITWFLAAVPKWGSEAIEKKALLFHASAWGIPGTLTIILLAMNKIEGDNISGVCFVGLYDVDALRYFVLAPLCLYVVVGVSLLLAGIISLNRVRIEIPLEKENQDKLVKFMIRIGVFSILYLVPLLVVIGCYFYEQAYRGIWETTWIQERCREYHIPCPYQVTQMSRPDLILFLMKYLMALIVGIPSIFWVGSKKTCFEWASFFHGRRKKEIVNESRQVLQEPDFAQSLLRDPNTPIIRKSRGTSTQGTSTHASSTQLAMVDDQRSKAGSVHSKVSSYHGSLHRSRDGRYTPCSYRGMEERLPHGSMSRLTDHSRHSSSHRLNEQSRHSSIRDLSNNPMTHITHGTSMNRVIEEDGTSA
Assay: alkaline phosphatase

Kd: 0.27 nM
B1: AP-tagged TSK protein (TSK-AP) (ligand, mouse, UniProt Q8CBR6 18-354, looked up)
chain: TRPCFPGCQCEEETFGLFDSFSLIRVDCSSLGPHIVPVPIPLDTAHLDLSSNRLETVNESVLAGPGYTTLAGLDLSYNLLTSIMPSAFSRLRYLESLDLSHNGLAALPAEIFTSSPLSDINLSHNRLREVSISAFTTHSQGRALHVDLSHNLIHRLLPHPARASLPAPTIQSLNLSWNRFRAVPDLRDLPLRYLSLDGNPLATINPDAFMGLAGLTHLSLASLQGILHLPPHGFRELPGLQVLDLSGNPKLKWAGAEVFSGLGLLQELDLSGSSLVPLPEMLLHHLPALQSVSVGQDVQCRRLVREGAYHRQPGSSPKVVLHCGDTQESAARGPDIL
